Measured values from ChEMBL document CHEMBL1122882, “3,4-O-diacetylisoproterenol. Preparation, structure proof, and beta-receptor effect” (1985).

Tests used:
[1] = test system: CC(=O)Oc1ccc(C(O)CNC(C)C)cc1OC(C)=O; conditions: Cerebral cortex
Description: (§1) Evaluated for the affinity in stimulating cAMP synthesis by beta-1 adrenergic receptor in rat cerebral cortex.

[2] = test system: CC(=O)Oc1ccc(C(Cl)CNC(C)C)cc1OC(C)=O; conditions: Cerebral cortex
Description: as §1

Sequence of Beta-1 adrenergic receptor (Rattus norvegicus), P18090 (P18090 whole entry): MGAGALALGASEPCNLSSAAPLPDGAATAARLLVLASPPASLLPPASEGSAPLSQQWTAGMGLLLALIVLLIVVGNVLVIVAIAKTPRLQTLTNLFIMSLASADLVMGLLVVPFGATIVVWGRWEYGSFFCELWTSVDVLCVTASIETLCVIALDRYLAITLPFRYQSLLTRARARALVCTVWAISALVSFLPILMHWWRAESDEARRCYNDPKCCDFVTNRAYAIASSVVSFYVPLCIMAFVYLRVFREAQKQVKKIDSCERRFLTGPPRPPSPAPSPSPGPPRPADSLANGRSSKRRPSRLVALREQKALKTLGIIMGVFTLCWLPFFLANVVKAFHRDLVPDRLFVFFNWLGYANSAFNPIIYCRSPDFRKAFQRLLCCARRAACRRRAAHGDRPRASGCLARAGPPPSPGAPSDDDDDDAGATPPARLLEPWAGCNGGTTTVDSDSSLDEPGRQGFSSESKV

Substance “Beta-1 adrenergic receptor (Rattus norvegicus), P18090” has a Km [1] of 25 µM and a Km [2] of 28 µM.
